Laboratory results published in patent US20220281949A1.

Legend:
DR1-restricted TCR HA1.7 [1] = assay: flow cytometry: HA1.7-transduced primary CD4+ T cells stained with PE wild-type DR1 dextramer and anti-CD4
DR1-restricted TCR HA1.7 [2] = assay: flow cytometry: TCR-transduced primary human T cells stained with PE class II dimer and anti-CD4

Substance	percent of cells in the dextramer+ CD4+ quadrant (DR1-restricted TCR HA1.7 [1])	percent of cells in the dimer+ CD4+ quadrant (DR1-restricted TCR HA1.7 [2])
CLIP, DR1 dextramer (peptide-MHC)	0.1%	–
Control (DR1 L114W/V143M+2reps dimer) (peptide-MHC)	–	0.1%
